Experimental data: the nanobody polyreactivity screen of Harvey et al. (2022)

Experiment: yeast display, Sf9 membrane polyspecificity reagent, FACS + sequencing; frameworks hold sequencing errors
Method in brief: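 A synthetic nanobody library was expressed on Saccharomyces cerevisiae BJ5465 by galactose induction for 36–48 hours. The library was stained for 1 hour at 4 °C with 10% biotinylated, detergent-solubilized Sf9 membrane reagent and enriched with streptavidin microbeads before FACS. Low and high (top ~1%) gates were set on anti-HA fluorescence for expression and streptavidin fluorescence for reagent binding, and each polyreactivity label reflects the gate of origin.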

Row | Sequence | polyreactivity (PSR sort gate)
1 | QDQLEESGGGLVQEGGSLRIICDAYRSTFYANTMGWYRQSTGKERELVATISIDGSTNYADSVKGRFTFSRDYAKNTVYLQMNSLKPEDTAVYYCNADVYSVLYGYWGQGTQVSVSS | low polyreactivity
2 | QVQLVESGGGLVQAGGSLRLSCAASGRIFSINAMGWYRQAPGKERELVAAITWSGGSTYYADSVKGRFTISRDNAKNTVYLQMNILKPEDTAVYYCAARLPWYIPTPSYRIAGGNYWGQGTQVTVSS | low polyreactivity
3 | QVQLVESGGGLVQAGGSLRLSCAASGSTFRINAMGWYRQAPGKERELVADINSGGNTTYADSVKGRFTISRDNAKNTVYLQMNSLKPEDTAVYYCAADPVFDLWEFLLDYGYDYWGQGTQVTVSS | low polyreactivity
4 | QVQLVESGGGLVQAGGSLRISCAASGSIFSYYAMGWYRQAPGTERELVAAITRGGTTYYADSVKGRFTISRDNAKNTVYLQMNSLKPEDTAVYYCAVYYYSGTAGYRYGYWGQGTQVTVSS | high polyreactivity
5 | QVQLVESGGGLVQAGGSLRLSCAASGRIFKYYAMGWYRQAPGKERELVATITSGGRTNYADSVKGRFTISRDNAKNTVYLQMNSLKPEDTAVYYCARRPPASSRYDYWGQGTQVTVSS | high polyreactivity
6 | QVQLVESGGGLVQAGGSLRLSCAASGRTFYGNAMGWYRQAPGKERELVASITRRGGITYYADSVKGRFTISRDNAKNTVYLQMNSLKPEDTAVYYCAKAQLGPWSFEYWGQGTQVTVSS | high polyreactivity
7 | QVQLVESGGGLVQAGGSLRLSCASSGFTLYANAMGGYRQAPGKERELVADISESGSSTSYADSVKGRFTISRDNAKNTVYLQMKSLKPEDTAVYYCYDYWVQGTQVTVSS | low polyreactivity
8 | QVQLVESGGGLVQAGGSLRLSCAASGIIFYEYVMGWYRPAPGKERELVAAINRSGGSTYYADSVKGRFTISRDNAKNTVYLQMNSLKPEDTAVYYCAASSTYDGRKYYYWGQGTQVNVSS | high polyreactivity
9 | QVKLVESGGGLVQAGGSIRLSCAASGRIFTTYTMGWYRQAPGKERELVAAITRGDRTNYADSVKGRFTISRDNAKNTVYLQMNSLIPEDTAVYYCAAVGNWYYRDPLHSRFYYWGQGTQVTVSS | high polyreactivity
10 | QVQLVESGGGLVQAGGSLRLSCAASGSIFGLYAMGWYRQAPGKERELVAAISSRGSSTYYADSVKGRFTISRDNAKNTVYIQMNSLKPEDTAVYYCNAYPFSRSVQLRDYWGQGTQVTVSS | low polyreactivity
11 | QVQLVETGGGLVQAGGSHRLSCAASGYIFFGNAMGWYRQAPGKERELVASIRWRGTSTYYADSVKGRFTISRDNAKNTGYLHMNSLKPEDTAVYYCAADVVRSNFYGTFLYDYDYWGQGTQVTVSS | low polyreactivity
12 | QVQLVESGGGLVEAGGSLRLICAASGSIFYFYGMGWYRQAPGKEREVVAAITYSGGSTYYADSVKGRYTISRDNAKNTVDLQMNSLIPEDTAVYYCNADSVLELYWKMDYWGQGTQVTVSS | low polyreactivity
13 | QVQIVDSGGGLVQAGCSLRLSCAASGFTFFSYAMGWYRQAHWKERELVAAISRSGGRKYYADSVKGRFTISRDNAKNTVYLLMNSLKPEDTAVYYCAAETKTIPFEYWGQGTQVTVSS | high polyreactivity
14 | QVQLVESGGGLVQAGGSLRLSCAASGRIFWRNTMGWYRQAPGKERELVAAITGSSTRTYYADSVKGRFTISRDNAKNTVYLQMNSLKPEDTAVYYCAARSYPYQVAAGYVTRFNYWGQGTQVTVSS | high polyreactivity
15 | QVQLVESGGGLVQAGGSLRLSSAPSGFTFDENAMGWYRQAPGINYSGASTYYADSVKGRFTISRDNAKNTVYLQMNSLKPEDTAVYYCAAEVVAQMNYWGQGTQVTVSS | low polyreactivity
16 | QVQLVQSGVGLDQAGGSLRLSCAASGSISSQNAMGWYRQAPGKESELVAAISWIGGSTYYADSVKGRFTISRDNAKNTVYLQMNSLKPEDTAVYYCAKDRASGFKYYYWGLGTQVTVSS | low polyreactivity
17 | QVQLVESGGGLVQAGGSLRLSCAASGRIFWQNAMGWYRQAPGKERELVAAISSRGGTTYYADSVKGRFTISRDNAKNTVYLQMNSLIPEDTAVYYCNAALLLRYRGFFTVAAYDYWGQGTQVTVSS | low polyreactivity
18 | QVQLVESGGGLVQAGGSLRLSCAASGITFPRYAMGGYRPAPGKERELVATITRTGRTNYADSVKGRFTISRDNAKNTVYLQKNSLKPEDTPVYYCAARNRRERKGKMDYWGQGTQVTVSS | high polyreactivity
19 | QVQLVESGGGLVQAGGSLRLSCAASGFIFVQYAMGWYRQAPGKERELVAAISKGGGSTYYADSVKGRFTISRDNAKNTVYLQMNSLKPEDTAVYDCNADKVTRVTYWDDSWGQGTQVTVSS | high polyreactivity
20 | QDQLVESGGGLVQAGGSLRLSCAASGSIFSGYAMGWYRQPPGKERELVAAISRRGTSTYYADSVKGRFTISRDNAKNTVYLQMNSLKPEDTAFYYCAATYGGRQSYGGFDYWGQGTQVTVSS | high polyreactivity
21 | QVQLVESGGGLVQAGGSLRLSCAASGRTFGGNAMGWDRQAPGKERELLAAITGRGGSTYYADSLKGRFTISRDNAKNTVYLQMNSLKPEDTAVYYCNADGSAYIEDGYDYWGQGTQVTVSS | low polyreactivity
22 | QVQLVESGGGLVQAGGSLRLSCAASGSILHLYAMGWYRQAPGKERELVARINSGGTTNYADSVKGRFTISRDNAKNTVYLQMNSLKPEDTAVYYCAARFTPYITSDVGHYDYWGQGTQVTVSS | low polyreactivity

Row | Sequence | polyreactivity (PSR sort gate)
23 | QVQLVESGGGLVQAGGSLRLSCAASGFTFDDYAMGWYRQAPGKERELVAAISWSGGSTYYADSVKGRFTISRDNAKNTVYLQMNSLKPEDTAVYYCAALRTGAQYSTMDYWGQGTQVTVSS | low polyreactivity
24 | QVQLVESGGGLVQAGGSLRLSCAASGSTIPRHAMGWYRQAPGKERELVAAITSGGSTNYADSVKGRFTISRDNAKNTVYLQMNSLKPEDTAVYYCAADVIVRVYYYYYVLMDYWGQGTQVTVSS | low polyreactivity
25 | QVQLVESGGGLVQAGGSLRLSCAASGRIFGYYAMCWYRQAPGKERELVARITWYGGDTYYADSVKGRFTISRDNAKNTVYLQMNSLKPEHTAVYYCGADFVFYRQPDTYFYPHDYWGQGTQVTVTS | low polyreactivity
26 | QVQLVESGGVLVQAGGSIRLTCAASGFTFSHYAMGWYRQAPGKERELVAAIRYSRASTYYADSVKGRFTISRYNAKNTVYLQMISVKPEDTSVYYCARPWWWAHHYDYDYWGQGSQVTVSS | low polyreactivity
27 | QVHLVESGGGLVQAGGSLRLTCAASGSTFGTYAMGWYRPAPGKERELVATIAIGGITYYADSVKGRFTISRDNAKYTVYLQMNSLKPEDTAVDYCAKDVTAPTSRSDPSGDDYWGQGTQVTVSS | low polyreactivity
28 | QVQLVESGGGLVQAGGSLLLSCAASGRTFTGYAMGGYRQAPVKERELVAAISASGGSTYYADSVKGRFTISRDNAKNTVYLQMNSLIPEDTAVYYCAAETWYSVLWEEGYDYWGQGTQVTVSS | low polyreactivity
29 | QVQLVESGGGLVQAGGSLRLSCAASGFTYKYYAMGWYRQAPGKERELVAAITRGGDTYYADSVKGRFSISRDNAKNTVYLQMNSLKPEDTAVYYCNTASDKRAFDYWGQGTQVTVSS | low polyreactivity
30 | QVQLVESGGGLVQAGGSLRLSCAASGYIFVRNAMGWYRQAPGKERELVAAISGSGGSTYYADSVKGRFTISRDNAKNTVYLQMNSLKPEDTAVYYCAADYATVTWRGIAYDYWGQGTQVTVSS | low polyreactivity
31 | QVQLVESAGGLVQAGGSLRLSCAPSGSILASNAMGCYRQAPGKDRELVSAITTSGGSTYYADYVKGRFTISLDNAKNTVYLQMNSLKPEDTAVYYCNAEYSRGRWLRYGYWGQGTQVTVSS | high polyreactivity
32 | QVQLVESGGGLVQAGGSLRLSCAASGIIFQYYVMGWYRQAPGKERELVATISTRGGSTYYADSVKGRFTISRDNAKNTVYLQMNSLKPEDTAVYYCAAPYGTYAYDYWGQGTQVTVSS | high polyreactivity
33 | QVQLVESGGGLVQAGGSLRLSCAASGSTFQYNAMGWYRQAPGKERELVATITWSGGSTYYADSVKGRFTISRDNAKNTVYLQMNSLKPEDTAVYYCAADYYYGYEFGYWGQGTKVTVSS | low polyreactivity
34 | QVQLVESGGGLVQAGGSLRLSCAASGLTFYSYAMGWYRQAPGKERELVAAITWSGGGTYYADSVKGRFTISRDNAKNTVYLQMNSLKPEDTAVYYCAALSYNGVRYYYWGQGTQVTVSS | high polyreactivity
35 | QVQIVESGGGLVQAGGSLRLSCASSGSTSYRNAMGWYRQAPGKEREFVASISKSTDSTYYADSVKGRFTISRDNAKNTVYLQMLSLKPEDTAVSYCADVQGYKGLQDDSWGQGTQVTVSS | high polyreactivity
36 | QVHLVESGRGLVQSGGSLRLSCADSGSTFATNAMGWYRQAPGKERELVAAITSRGGTYYADSVKRRFTISRDKAKNTVYLQMNSLKPEDTAVYYCNAVSRYAFDYCGQGTQVTVSS | high polyreactivity
37 | QVQLVESGGGLVQAGGSLRLSCAPSGSIFYVYARGWYRQAPGKERQLVATIPRVGRTYYADSVKGRFTISRDNAKNTVYLQRNSLKPEDTAVYYCATRYGGRSYKYDYWGQGTQVTVSS | high polyreactivity
38 | QVQLVESGGGLVQAGGSLRLSCAASGYIFSTYDMGWYRQAPGKERELVATISSSGGSTYYADSVKGRFTISRDIAKNTVYLQMNSLKPEDTAVYYCAADLYLYQYRYEYDYWGQGTQVTVSS | high polyreactivity
39 | QVQLVESAGGLVQAGGSLRLSCAASGYTFVNYAMGWYRQAPGKERELVAAISRSGGSTYYADSVKGRFTISRDHAKNTVYLQMNSLKPEDTAVYYCAKVVQGDHPYDYWGQGTQVTVSS | high polyreactivity
40 | QVQLVESGGGLVQAGGSLRLSCAPSGSIFRGYTMGWYRQAPVKERELVAAISWSGGSTYYADSVKGRFTISRDNAKNTVYLQMNSLKPEDTAVYYCAAGDYYHRIFLWYDFWGQGTQVNVSS | low polyreactivity
41 | QVQLVESGGALVHAGGSLRLSCAASGSTFSGYDMVWYRQAPGKERELVAAISTYYADSVKGRFTISRDNAKTTVFLQMYCLKPEDRAVYYCAKPWGRYDYLGQGTQVTVSS | low polyreactivity
42 | QVQLVESGGGLVQAGGSLRLSCAASGITFPRNAMGWYRQAPGKERELVAAISARGGNTYYADSVKGRFTISRDNSKNNVYLQMNSLKPEDTAVYFCNALGSSYSEPSEYDYWGQGTQVTVSS | low polyreactivity
43 | QVQLVESGGGLVQAGGSLRLSCAASGRTFHRYAMGWYRQAPGKERELVAAITYRGGRTYYADSVKGRFTISRDNANNTVYLQMNSLKPEDTAVYYCNTTQYSPIHDPGDYWGQGTQVTVSS | low polyreactivity
